# Measured values: EP3446126B1 (Université Libre de Bruxelles, dated 2024)
# B1: nanobody 4hD29 (VHH)
# VHH: QVQLQESGGGLVQPGGSLRLSCAASGFTFSSNYMTWVRQAPGKGPEWVSGINPDGSSTYYADSVKGRFTISRDNAKNTLYLQMNSLKSEDTALYKCATGAAPRIPTTLRGQGTQVTVSS
# notes: Dromedary nanobody from an immune phage display library; also called Nb 4hD29; 4hD29 Nb
# Biological target: human DPP6 protein (as used in the affinity analysis) (human, UniProt P42658 117-865, limits assumed)
# Assay: affinity analysis versus human DPP6 protein; method not stated
# Chain of human DPP6 protein (as used in the affinity analysis) (P42658 117-865 limits assumed): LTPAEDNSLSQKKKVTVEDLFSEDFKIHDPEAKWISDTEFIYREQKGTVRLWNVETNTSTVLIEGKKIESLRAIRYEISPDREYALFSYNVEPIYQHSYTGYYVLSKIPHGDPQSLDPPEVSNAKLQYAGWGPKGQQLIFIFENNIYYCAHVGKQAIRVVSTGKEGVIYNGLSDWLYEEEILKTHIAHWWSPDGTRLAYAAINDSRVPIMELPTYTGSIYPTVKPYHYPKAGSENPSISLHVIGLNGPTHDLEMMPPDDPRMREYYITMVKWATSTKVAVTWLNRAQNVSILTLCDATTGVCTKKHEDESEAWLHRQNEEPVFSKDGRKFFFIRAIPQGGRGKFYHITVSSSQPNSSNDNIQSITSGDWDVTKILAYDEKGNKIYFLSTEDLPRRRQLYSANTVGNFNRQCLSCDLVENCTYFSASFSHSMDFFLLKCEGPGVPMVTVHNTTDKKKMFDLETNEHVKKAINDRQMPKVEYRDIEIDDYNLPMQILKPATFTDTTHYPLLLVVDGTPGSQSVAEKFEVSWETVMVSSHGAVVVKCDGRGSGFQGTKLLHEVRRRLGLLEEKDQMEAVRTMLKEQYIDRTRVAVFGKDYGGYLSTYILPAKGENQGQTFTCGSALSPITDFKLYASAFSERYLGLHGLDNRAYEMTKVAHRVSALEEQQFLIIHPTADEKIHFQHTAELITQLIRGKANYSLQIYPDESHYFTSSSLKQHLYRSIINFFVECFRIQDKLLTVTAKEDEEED
binder,measurement,value
B1,Kd,1.2 nM
